# B1: CaVβ2-core WT (core region of rat CaVβ2, residues 23–422) (domain or fragment)
# chain: not shown
# notes: rat CaVβ2 (voltage-gated calcium channel β2 subunit), UniProtKB Q8VGC3-2, core region (SH3 and GK domains), residues 23–422; Expressed from pRSETB
# Biological target: rabbit skeletal muscle actin, polymerized in vitro (F-actin) (rabbit, UniProt P68135 1-377)
# Assay: co-sedimentation; F-actin cosedimentation: CaVβ proteins incubated with polymerized actin in polymerization buffer (0.2 mM CaCl2, 50 mM KCl, 2 mM MgCl2, 1 mM ATP, 5 mM HEPES pH 8.0), 25 µM phalloidin; 150,000 × g, 20 min, 4 °C; densitometry of pellet over total; also at 30–150 mM NaCl and after 30 or 90 min of incubation
# Conditions: both partners purified
binder,measurement,value
B1,bound fraction,0.24 ± 0.03 fraction

# — PMC12065904, “Mapping the interaction surface between CaVβ and actin and its role in calcium channel clearance” (Nature Communications, 2025)
